Data on 14 molecules can be found in US20180305451A1 (COMPUGEN, published 2018).

Assay [1] deals with T1, HIDE1_HH-1 (Human ECD + human IgG1 Fc mutated C220S at hinge), without SP (human).
T1 construct: Batch #280 in the Serotec and phage display work; also called HIDE1 hECD-hIg; HIDE1 (H:H) recombinant Fc fusion protein
As to the kind of experiment: SPR (ProteOn), Fab PPE over captured HIDE1-HH-1, 1:1 fit. The protocol:
Preliminary Fab binding kinetics were determined using Fab PPEs produced as described in paragraph [001064] (“Fab PPE production”)[001064]. Studies were conducted using Biacore 3000 and ProteOn XPR 36 instruments at 22° C.
A high density goat anti-human Fc antibody (Invitrogen) was immobilized by standard amine coupling over all lanes of a GLC chip using a ProteOn XPR 36 biosensor (Biorad). This surface was used to capture the recombinant HIDE1-H:H fusion protein (GenScript Lot 393383-21, batch #280) or a control Fc fusion protein (CD155, Sino Biologicals) in the vertical flow-cell direction at a concentration of ˜0.5 μg/mL for 90 seconds.

The target of a further assay is T2, mouse HIDE1 (mouse, UniProt Q75VT8 22-222).
T2 construct: Endogenous on EL4, YAC-1, J774A.1/J774A.2 cells; also called AB124611; mHIDE1
T2 sequence: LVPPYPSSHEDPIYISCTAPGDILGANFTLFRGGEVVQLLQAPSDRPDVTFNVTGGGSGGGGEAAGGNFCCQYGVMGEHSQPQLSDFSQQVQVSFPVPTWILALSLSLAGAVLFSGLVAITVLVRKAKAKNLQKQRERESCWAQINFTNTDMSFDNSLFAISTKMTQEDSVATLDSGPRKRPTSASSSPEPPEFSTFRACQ
Description: FACS on 293T-moHIDE1 cells, human IgG4. As for the experimental part: (§1) FACS screening of reformatted IgG4 antibodies: The cell lines described in paragraph [001066] (“FACS screening of PPE”) were mixed with FACS buffer containing the purified anti-HIDE1 IgGs or isotype controls. […] Cells were washed again and fluorescence was detected using an Intellicyt HTFC screening system (Intellicyt). Data were analyzed using FCS Express (DeNovo) and plotted for affinity calculations (KD) in GraphPad Prism (GraphPad Software, Inc.). Note that each anti-HIDE1 antibody was tested over a titration range from 0-80 μg/mL.
(§2) Overview of FACS binding results for human IgG4 antibodies reformatted from Fab screening hits. […] IgGs from the same H-CDR3 family are indicated by the same color, either blue or green. CPA.12.003 & CPA.12.008 have identical heavy chain CDR-3 regions and minor differences in framework regions or other CDRs. The same holds for CPA.12.004 & CPA.12.013. N.B. not binding.

Another assay addresses T3, human HIDE1 (human, UniProt A8MVS5 20-230).
T3 construct: Endogenous on U937, HL-60, THP-1 cells, blood monocytes, AML blasts and dendritic cells; also called C19orf38; hHIDE1
T3 sequence: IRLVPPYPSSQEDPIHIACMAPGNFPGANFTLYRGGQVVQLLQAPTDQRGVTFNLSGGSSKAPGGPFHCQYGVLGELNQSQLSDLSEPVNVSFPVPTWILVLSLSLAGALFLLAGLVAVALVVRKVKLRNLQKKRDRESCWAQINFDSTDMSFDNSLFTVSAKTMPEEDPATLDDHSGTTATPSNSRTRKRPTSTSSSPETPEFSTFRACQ
As to the kind of experiment: FACS titration on 293T-huHIDE1 cells, human IgG4 (preliminary FACS KD). The protocol: as §1, §2

T1 sequence (chain, as listed by the source C220S C220S limits assumed): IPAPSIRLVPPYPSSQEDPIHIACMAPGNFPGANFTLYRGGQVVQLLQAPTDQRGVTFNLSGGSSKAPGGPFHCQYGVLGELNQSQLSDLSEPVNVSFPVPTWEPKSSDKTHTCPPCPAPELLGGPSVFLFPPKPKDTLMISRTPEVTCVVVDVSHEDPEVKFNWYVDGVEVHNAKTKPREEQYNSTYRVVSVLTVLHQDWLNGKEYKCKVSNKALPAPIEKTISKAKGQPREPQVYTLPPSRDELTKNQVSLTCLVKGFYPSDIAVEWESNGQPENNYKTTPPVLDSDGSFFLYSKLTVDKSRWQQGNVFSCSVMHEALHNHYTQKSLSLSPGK

B1: CPA.12.014 Fab (B12 S404-01.E06) (Fab, V domains shown)
VH: QVTLKESGPALVTPTQNLTLTCTVSGGSISSSSYYWGWIRQPPGKGLEWIGSIYYSGSTYYNPSLKSRVTISVDTSKNQFSLKLSSVTAADTAVYYCARRRNSSGWFYFDYWGQGTLVTVSS
VL: QSVLTQPPSVSGAPRQRVTISCSGSRSNIGDNAVNWYQHPPGKAPKLLIYYDDLLPSGVSDRFSGSKSGTSASLAISGLQSEDEADYYCATWDDSLNGHVFGTGTKLTVLG
notes: XOMA031 library Fab in periplasmic extract
The Kd is the constant that tells how readily two partners part at equilibrium. What is called koff is the first-order rate constant of dissociation. One may read the kon as the rate constant with which the complex forms. Regarding B1, in assay [1], the Kd was determined as 37 nM, the koff was 0.0037 s⁻¹ and the kon is 99000 M⁻¹ s⁻¹.

B2: CPA.12.001 Fab (A01 S397-01.A04) (Fab, V domains shown)
VH: QVQLVESGGGLVQPGRSLRLSCAASGFTFSSYGMHWVRQAPGKGLEWVAVISYDGSNKYYADSVKGRFTISRDNSKNTLYLQMNSLRAEDTAVYYCASEGVDFWSGLDYWGQGTLVTVSS
VL: QSALTQPRSASGSAGQSVTISCTGTSSDVGGHNYVSWYQQFPGKAPKLLIYEVSHRPSGVPDRFSGSKSGNTASLTVSGLQAEDEADYYCSSYADLNNLMFGGGTKLTVLG
notes: as for B1
Consider B2, for which, in assay [1], the Kd is 1.2 nM, the koff is 0.00081 s⁻¹ and the kon came out at 670000 M⁻¹ s⁻¹.

B3: CPA.12.001 human IgG4 (antibody, V domains shown)
VH: QVQLVESGGGLVQPGRSLRLSCAASGFTFSSYGMHWVRQAPGKGLEWVAVISYDGSNKYYADSVKGRFTISRDNSKNTLYLQMNSLRAEDTAVYYCASEGVDFWSGLDYWGQGTLVTVSS
VL: QSALTQPRSASGSAGQSVTISCTGTSSDVGGHNYVSWYQQFPGKAPKLLIYEVSHRPSGVPDRFSGSKSGNTASLTVSGLQAEDEADYYCSSYADLNNLMFGGGTKLTVLG
notes: also called CPA.12.001-H4
In the case of B3, in the assay with mouse HIDE1, the binding result was “no binding (tested: titration 0-80 µg/mL)”. Also, the Kd with human HIDE1 was found to be 61 nM.

B4: CPA.12.003 Fab (A03 S397-01.A12) (Fab, V domains shown)
VH: QVQLQESGPGLVTPSETLSLTCTVSGGSISSVSYYWGWVRQPPGKGLEWIGSIYYSGTTAHNPSLKSRVTMAVDTSKNQFSLSLSSVTAADTAVYFCARGWRYYEDYYFDHWGQGTLVTVSS
VL: DIQMTQSPSTLSASVGDRVTITCRASQSINRWLAWYQQKPGKAPKILIYTASSLESGVPSRFSGSGSGTEFTLTISSLQPDDFATYYCQQYNSYPITFGQGTRLEIKR
notes: as for B1
As for B4, in assay [1], the Kd was 0.91 nM, the koff stood at 0.00022 s⁻¹ and the kon came to 250000 M⁻¹ s⁻¹.

B5: CPA.12.003 human IgG4 (antibody, V domains shown)
VH: QVQLQESGPGLVTPSETLSLTCTVSGGSISSVSYYWGWVRQPPGKGLEWIGSIYYSGTTAHNPSLKSRVTMAVDTSKNQFSLSLSSVTAADTAVYFCARGWRYYEDYYFDHWGQGTLVTVSS
VL: DIQMTQSPSTLSASVGDRVTITCRASQSINRWLAWYQQKPGKAPKILIYTASSLESGVPSRFSGSGSGTEFTLTISSLQPDDFATYYCQQYNSYPITFGQGTRLEIKR
notes: also called CPA.12.003-H4
For B5, the binding result with mouse HIDE1 is reported as “no binding (tested: titration 0-80 µg/mL)”. Further, binding with human HIDE1 was characterised by a dissociation constant (Kd) of 18 nM.

B6: CPA.12.006 Fab (A07 S398-01.D09) (Fab, V domains shown)
VH: EVQLVESGGGVVQPGRSLRLSCAASGFTFSSFAMHWVRQAPGKGPEWLGIILYEGGHVVYADSVRGRLTISRDNSKNTLYLQMDSLRDEDTAVYYCAKGFYHAFDVWGQGTMVTVSS
VL: QAVLTQPASLSASPGASASLTCTLRSGINVGTYRIYWYQQKPGSPPQYLLRYKSDSDKQQGSGVPSRFSGSKDASANAGILLISGLQSEDEADYYCMIWHSSAWVFGGGTQLTVLG
notes: as for B1
For the molecule B6, in assay [1], the equilibrium dissociation constant (Kd) came to 3.9 nM, the off-rate (koff) turned out to be 0.00027 s⁻¹ and the kon came out at 68000 M⁻¹ s⁻¹.

B7: CPA.12.011 Fab (B03 S400-01.E01) (Fab, V domains shown)
VH: EVQLVESGGGLVQPGGTLRLSCVVSGFTFSSYAMSWVRQAPGKGLEWVSGISGSGGSTYISSGRTYRSTYYADSVKGRFTIARDNSENTLFLQLNSLRAEDTAIYYCAKVNSGEYAHTFDYWGQGTLVTVSS
VL: DIQMTQSPSSLSASVGDRVTITCRASQGISNYLVWYQQKPGKAPKSLIYAASSLQSGVPSRFSGSGSGTDFTLTISSLQPEDFATYYCQQYNYYPITFGQGTRLEIKR
notes: as for B1
For B7, in assay [1], the Kd was found to be 0.64 nM, the koff turned out to be 0.00019 s⁻¹ and the kon is 290000 M⁻¹ s⁻¹.

B8: CPA.12.007 Fab (A08 S398-01.E08) (Fab, V domains shown)
VH: EVQLVESGGGVVQPGESLRLSCAASGFTFSSYGFHWVRQSPGEGLEWLAVISYDGTSKSYADSVKGRFTVSRDNSKETLYLQLSSLRREDTALYYCARDTWGYYYGMDVWGQGTTVTVSS
VL: DIQMTQSPSFLSGSVGDRVSISCRASQDIRSHLAWYQRKPGEAPKLLIYTASSLQGGVPLRFSGSGSGTEFTLTISSLQPEDSATYYCQHLHLYPLTFGGGTKLEIKR
notes: as for B1
In the case of B8, in assay [1], the Kd turned out to be 1.6 nM, the koff worked out at 0.00034 s⁻¹ and the kon turned out to be 210000 M⁻¹ s⁻¹.

B9: CPA.12.004 Fab (A04 S397-01.D06) (Fab, V domains shown)
VH: EVQLVETGGGLIQPGRSLRLSCVASDFRFSNHAMHWVRQAPGKELEWVAVISSDGSNRQYAYSVKGRFTISRDNSKNTLYLEMNILGPEDTAVYFCVRSHLGPEWYYGMDVWGQGTTVTVSS
VL: DIQMTQSPSSLSTSVGDSVTITCRSSQSISTFLSWFQHKPGKAPNLLIYDASSLQSGVPSRFSGSGSGTDFTLTISSLQPEDFATYYCQQSDYLPFTFGPGTKVEIKR
notes: as for B1
As for B9, in assay [1], the Kd stood at 2.1 nM, the koff stood at 0.0033 s⁻¹ and the kon amounted to 1.6e+06 M⁻¹ s⁻¹.

B10: CPA.12.004 human IgG4 (antibody, V domains shown)
VH: EVQLVETGGGLIQPGRSLRLSCVASDFRFSNHAMHWVRQAPGKELEWVAVISSDGSNRQYAYSVKGRFTISRDNSKNTLYLEMNILGPEDTAVYFCVRSHLGPEWYYGMDVWGQGTTVTVSS
VL: DIQMTQSPSSLSTSVGDSVTITCRSSQSISTFLSWFQHKPGKAPNLLIYDASSLQSGVPSRFSGSGSGTDFTLTISSLQPEDFATYYCQQSDYLPFTFGPGTKVEIKR
notes: also called CPA.12.004-H4
With B10, the binding result with mouse HIDE1 is listed as “no binding (tested: titration 0-80 µg/mL)”. The molecule further showed a dissociation constant Kd with human HIDE1 of 1.4 nM.

B11: CPA.12.005 Fab (A06 S397-01.H07) (Fab, V domains shown)
VH: QVQLVESGGGVVQPGRSLRVSCAVSGFTFSSYGMHWVRQAPGGGLEWVAVMSYEGSFRHYADSVKGRFTISRDNSKNTLFLQMDSLRAEDTAVYYCARDRPAGYTSGWGILDYWGQGTLVTVSS
VL: EIVMTQSPATLSLSPGERATLSCRASQSVSSYLAWYQQKPGQAPRLLIYDASNRATGIPARFSGSGSGTDFTLTISSLEPEDFAVYYCQQRSNWPLTFGGGTKVDIKR
notes: as for B1
B11: in assay [1], the Kd was found to be 2.3 nM, the koff worked out at 0.001 s⁻¹ and the kon is 440000 M⁻¹ s⁻¹.

B12: CPA.12.009 Fab (A10 S398-02.A04) (Fab, V domains shown)
VH: QMQLVQSGAEVKKPGASVKVSCKASGYTFTTHAFSWVRQAPGLGLEWMGWISTYNGNTKYEQKFQGRVTLTTDSSTNTAYMELRSLRSDDTAVYYCVRDSRAFDVWGQGTMVTVSS
VL: DIQLTQSPSFLSASVGDRVTITCRASQGINSYLAWYQQKPGAAPKLLIYAASTLQSGVPSRFSGSGSGTEFTLTISSLQPEDFATYYCQQLNTYPLIFGQGTRLEIKR
notes: as for B1
Take B12: in assay [1], the Kd is 1 nM, the koff came out at 0.0014 s⁻¹ and the on-rate constant (kon) came to 1.4e+06 M⁻¹ s⁻¹.

B13: CPA.12.002 Fab (A02 S397-01.A08) (Fab, V domains shown)
VH: EVQLVESGGGLVQPGRSLRLSCAASGFTFSSYAMHWVRQVPGKGLEWVAVISYDGSNKYYADSVKGRFTISRDNSKNTLYLQMNSLRAEDTAVYYCAKPMYSSGWYPLGYWGQGTLVTVSS
VL: DIVMTQTPLSLPVTPGQPASISCRSSQSPLDTDGNTYLDWYLQRPGQSPQLLIYTLSNRASGVPDRFSGSGSGTDFTLKISRVEAEDVGIYYCMQRIQYPLTFGPGTRLEIKR
notes: as for B1
B13: in assay [1], the Kd stood at 8 nM, the dissociation rate constant (koff) was found to be 0.00083 s⁻¹ and the kon came to 100000 M⁻¹ s⁻¹.

B14: CPA.12.002 human IgG4 (antibody, V domains shown)
VH: EVQLVESGGGLVQPGRSLRLSCAASGFTFSSYAMHWVRQVPGKGLEWVAVISYDGSNKYYADSVKGRFTISRDNSKNTLYLQMNSLRAEDTAVYYCAKPMYSSGWYPLGYWGQGTLVTVSS
VL: DIVMTQTPLSLPVTPGQPASISCRSSQSPLDTDGNTYLDWYLQRPGQSPQLLIYTLSNRASGVPDRFSGSGSGTDFTLKISRVEAEDVGIYYCMQRIQYPLTFGPGTRLEIKR
notes: also called CPA.12.002-H4
Turning to B14, the binding result with mouse HIDE1 is “no binding (tested: titration 0-80 µg/mL)”. Besides, binding with human HIDE1 was put at a Kd of 6.4 nM.
